Experimental findings from patent US20040235098A1, “Sulfotransferase sequence variants” (Mayo Foundation for Medical Education and Research, a …, priority 1998, published 2004) are described below.

Residue numbers refer to the chain shown, from its start. Names and notes keep the numbering of the source.

Common to all, as to type: biochemical, human
Substrate in data set [1]: O=[N+]([O-])c1ccc(O)cc1
Briefly: Substrate kinetics of recombinant SULT1A2*1. To be noted: other: recombinant SULT1A2*1; 0.08 to 10.0 μM 4-nitrophenol; mean±SEM of nine.

Substrate in data set [2]: O=[N+]([O-])c1ccc(O)cc1
Nature of the data set: Substrate kinetics of recombinant SULT1A2*3. To be noted: other: recombinant SULT1A2*3; 0.08 to 10.0 μM 4-nitrophenol; mean±SEM of nine.

Substrate in data set [3]: O=[N+]([O-])c1ccc(O)cc1
Nature of the data set: Substrate kinetics of recombinant SULT1A2*2. The note with it: other: recombinant SULT1A2*2; 1.0 to 1000 μM 4-nitrophenol; mean±SEM of nine.

Substrate in data set [4]: O=[N+]([O-])c1ccc(O)cc1
Nature of the data set: Substrate kinetics of recombinant SULT1A1*3. To be noted: other: recombinant SULT1A1*3; 0.02 to 5.0 μM 4-nitrophenol; mean±SEM of nine.

Substrate in data set [5]: O=[N+]([O-])c1ccc(O)cc1
Nature of the data set: Substrate kinetics of recombinant SULT1A1*1. The note with it: other: recombinant SULT1A1*1; 0.02 to 5.0 μM 4-nitrophenol; mean±SEM of nine.

Substrate in data set [6]: O=[N+]([O-])c1ccc(O)cc1
Briefly: Substrate kinetics of recombinant SULT1A3. The note with it: other: recombinant SULT1A3; 3.9 to 3000 μM 4-nitrophenol; mean±SEM of nine.

B1: SULT1A2*1 (Homo sapiens) (protein)
chain: MELIQDISRPPLEYVKGVPLIKYFAEALGPLQSFQARPDDLLISTYPKSGTTWVSQILDMIYQGGDLEKCHRAPIFMRVPFLEFKVPGIPSGMETLKNTPAPRLLKTHLPLALLPQTLLDQKVKVVYVARNAKDVAVSYYHFYHMAKVYPHPGTWESFLEKFMAGEVSYGSWYQHVQEWWELSRTHPVLYLFYEDMKENPKREIQKILEFVGRSLPEETVDLMVEHTSFKEMKKNPMTNYTTVRREFMDHSISPFMRKGMAGDWKTTFTVAQNERFDADYAKKMAGCSLSFRSEL
notes: made in house; host or cells: COS-1 cells, pCR3.1 vector, unpurified cytosol
As usually defined, the Km is the substrate concentration at which the rate is half of its maximum. For B1, in data set [1], the Km came out at 8.70 ± 1.10 µM.

B2: SULT1A2*3 (Homo sapiens; P19L) (protein)
chain: B1 chain with P19L
notes: as for B1
Consider B2, for which the Km in data set [2] is 5.65 ± 1.14 µM.

B3: SULT1A2*2 (Homo sapiens; I7T/N235T) (protein)
chain: B1 chain with I7T, N235T
notes: as for B1
For the protein B3, the Km in data set [3] stood at 373 ± 33 µM.

B4: SULT1A1*3 (Homo sapiens) (protein)
chain: MELIQDTSRPPLEYVKGVPLIKYFAEALGPLQSFQARPDDLLISTYPKSGTTWVSQILDMIYQGGDLEKCHRAPIFMRVPFLEFKAPGIPSGMETLKDTPAPRLLKTHLPLALLPQTLLDQKVKVVYVARNAKDVAVSYYHFYHMAKVHPEPGTWDSFLEKFMVGEVSYGSWYQHVQEWWELSRTHPVLYLFYEDMKENPKREIQKILEFVGRSLPEETVDFVVQHTSFKEMKKNPMTNYTTVPQEFMDHSISPFMRKGMAGDWKTTFTVAQNERFDADYAEKMAGCSLSFRSEL
notes: as for B1
For the protein B4, the Km in data set [4] was found to be 0.31 ± 0.01 µM.

B5: SULT1A1*1 (Homo sapiens) (protein)
chain: B4 chain
notes: as for B1
With B5, in data set [5], the Km was 0.88 ± 0.07 µM.

B6: SULT1A3 (Homo sapiens) (protein)
chain: MELIQDTSRPPLEYVKGVPLIKYFAEALGPLQSFQARPDDLLINTYPKSGTTWVSQILDMIYQGGDLEKCNRAPIYVRVPFLEVNDPGEPSGLETLKDTPPPRLIKSHLPLALLPQTLLDQKVKVVYVARNPKDVAVSYYHFHRMEKAHPEPGTWDSFLEKFMAGEVSYGSWYQHVQEWWELSRTHPVLYLFYEDMKENPKREIQKILEFVGRSLPEETMDFMVQHTSFKEMKKNPMTNYTTVPQELMDHSISPFMRKGMAGDWKTTFTVAQNERFDADYAEKMAGCSLSFRSEL
notes: as for B1
In the case of B6, the Km in data set [6] amounted to 4960 ± 810 µM.
